± gives the standard deviation of the averaged measurements.
System: ATP
Assay: switch fluorescence ratio, 500 uM ATP over buffer (Cy3 cluster intensity, sum of 5 cycles each) (fold (ratio)); higher = stronger signal-on switching upon ATP binding; sequences stand for … in TCGTCGGCAGCGTCAGATGTGTATAAGAGACAGTTTTTTTTTTTTTTTTTTTTTTTTT…TC
Conditions: aptamer strand: ATP DNA aptamer (quencher-CACCTGGGGGAGTATTGCGGAGGAAGG + anchor), 100 nM annealed; ATP concentration: 500 uM
Procedure, shortened: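 Imaging in selection buffer was followed by imaging after 15 min with 500 uM ATP at 22 °C, for Cy3-labelled switching-strand clusters annealed to 100 nM quencher-labelled ATP aptamer on a modified Illumina MiSeq flow-cell. Five of these buffer/ATP cycles ran, separated by NaOH stripping and re-annealing. The fluorescence ratio per cluster is summed target-cycle over summed buffer-cycle Cy3 intensity, averaged per switch-domain sequence; clusters outside 100-1000 RFU were removed.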
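Note: ATP exposure 15 min at 22 °C before imaging.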

Sequence | switch fluorescence ratio
GACAATGGTG | 1.021 ± 0.0049
GACAATGTAC | 4.02 ± 0.16
GACACGGAAA | 1.23 ± 0.29
GACAGAGGGA | 1.02 ± 0.031
GACAGCCGGT | 1.01 ± 0.029
GACAGGAATT | 1.029 ± 0.008
GACAGGGATT | 1.1 ± 0.15
GACAGGTGCG | 1.274 ± 0.012
GACAGTAGTC | 1.001 ± 0.0049
GACAGTCGGG | 1.01 ± 0.024
GACATAGGTT | 1.034 ± 0.008
GACATAGTTT | 1.021 ± 0.01
GACATCAGAG | 1.02 ± 0.053
GACATGGACG | 1.088 ± 0.0062
GACATGGGTT | 0.983 ± 0.015
GACATTCCCT | 1.07 ± 0.016
GACATTGGCT | 0.948 ± 0.03
GACATTGTGT | 0.98604 ± 0.00074
GACATTGTTA | 1.01 ± 0.063
GACATTTGGA | 1.017 ± 0.0066
GACATTTTTT | 0.978 ± 0.036
GACCAAGGGT | 0.978 ± 0.012
GACCACAT | 1.05 ± 0.004
GACCACTTGA | 1.01 ± 0.014
GACCATTGTT | 1.01 ± 0.013

Sequence | switch fluorescence ratio
GACCCAAGGC | 1.194 ± 0.01
GACCGATGGG | 1.01 ± 0.013
GACCGATGTG | 1.01 ± 0.013
GACCGCTGGT | 0.996 ± 0.039
GACCGGGTTC | 1.02 ± 0.033
GACCTATGGA | 0.997 ± 0.0037
GACCTTAATT | 1.01 ± 0.025
GACCTTGACG | 1.02 ± 0.022
GACCTTGGTG | 1.03 ± 0.083
GACCTTTCTG | 0.997 ± 0.025
GACCTTTGAG | 1.017 ± 0.0045
GACCTTTTT | 1.02 ± 0.042
GACCTTTTTC | 1.03 ± 0.068
GACGACGGGG | 1.05 ± 0.028
GACGATGCCA | 1.16 ± 0.035
GACGCAGGGT | 1.34 ± 0.25
GACGCATATG | 2.03 ± 0.098
GACGCCGGGT | 1.03 ± 0.02
GACGCCGGTC | 1.25 ± 0.27
GACGCGGAAC | 5.48 ± 0.37
GACGGAACGG | 1.04 ± 0.022
GACGGAAGCA | 1.38 ± 0.11
GACGGCGTCG | 0.974 ± 0.011
GACGGCTTGG | 1.02 ± 0.025
GACGGGCGGC | 0.984 ± 0.02

Sequence | switch fluorescence ratio
GACGGGCTGG | 0.989 ± 0.024
GACGGGCTGT | 0.985 ± 0.029
GACGGGGAAA | 1.01 ± 0.028
GACGGGGCG | 0.97 ± 0.057
GACGGTTGTG | 1 ± 0.012
GACGTAGGTC | 1 ± 0.029
GACGTAGTTT | 1.014 ± 0.0021
GACGTGACAA | 1.168 ± 0.0021
GACGTGACGA | 1.15 ± 0.019
GACGTGGTTT | 0.994 ± 0.046
GACGTTCGGC | 0.991 ± 0.026
GACTAAGTGT | 1 ± 0.022
GACTACTGTA | 1.04 ± 0.051
GACTAGACGG | 1.13 ± 0.041
GACTAGGTTT | 1.04 ± 0.013
GACTATCGGA | 1.03 ± 0.013
GACTATGAGA | 0.9936 ± 0.0039
GACTATGGTT | 0.986 ± 0.051
GACTATGTTT | 1 ± 0.044
GACTCAAGTT | 1.048 ± 0.0054
GACTCAATGG | 1.14 ± 0.03
GACTCAGTTG | 0.9947 ± 0.0084
GACTCGAGGC | 1.05 ± 0.06
GACTCGGTGC | 1.05 ± 0.019
GACTCTGAGT | 1.01 ± 0.017

Sequence | switch fluorescence ratio
GACTCTTGAA | 0.995 ± 0.071
GACTGATCGT | 1.008 ± 0.0059
GACTGATTGG | 1.02 ± 0.012
GACTGGCTGG | 1 ± 0.03
GACTGGGGTA | 0.988 ± 0.011
GACTGGGTG | 1.04 ± 0.014
GACTGGGTTG | 0.9668 ± 0.0011
GACTGTGATC | 1.037 ± 0.0042
GACTGTTCGG | 0.985 ± 0.025
GACTTAGAAT | 1 ± 0.0026
GACTTATCTA | 1.016 ± 0.0073
GACTTCGTGG | 1.01 ± 0.056
GACTTGATTA | 0.9719 ± 0.0062
GACTTGGGAT | 1.034 ± 0.0019
GACTTGGGGC | 0.993 ± 0.037
GACTTTACGG | 1.06 ± 0.048
GACTTTGGAG | 1 ± 0.027
GACTTTGGGA | 0.999 ± 0.023
GACTTTGTGC | 0.9772 ± 0.0022
GACTTTTCTT | 0.971 ± 0.033
GACTTTTTGG | 0.998 ± 0.027
GAGAAACCGG | 1.03 ± 0.019
GAGAAATGTG | 1.03 ± 0.011
GAGAAGAAGC | 1 ± 0.025
GAGAAGGATT | 0.99 ± 0.046

Sequence | switch fluorescence ratio
GAGAATCGGA | 0.965 ± 0.012
GAGACATTGG | 1 ± 0.062
GAGACCTATT | 0.993 ± 0.035
GAGAGCTATC | 0.9848 ± 0.0024
GAGAGCTTGT | 0.956 ± 0.027
GAGAGGAGGT | 1.022 ± 0.0029
GAGAGGGAGG | 0.979 ± 0.015
GAGAGGGATT | 1.03 ± 0.015
GAGAGGGGAA | 1.01 ± 0.009
GAGAGGGGAG | 0.983 ± 0.025
GAGAGGGGGA | 0.97 ± 0.036
GAGAGGGGGG | 1 ± 0.025
GAGAGGGTTT | 1 ± 0.011
GAGAGTAATT | 1.01 ± 0.051
GAGAGTATTT | 0.995 ± 0.073
GAGAGTGGGG | 0.985 ± 0.037
GAGAGTTGGT | 1.007 ± 0.0073
GAGAGTTTAA | 1.013 ± 0.0051
GAGATAAAAG | 1.01 ± 0.03
GAGATAGTGT | 0.991 ± 0.036
GAGATAGTTT | 0.995 ± 0.042
GAGATGAGGA | 0.97 ± 0.024
GAGATGGGGT | 0.995 ± 0.016
GAGATGTCTT | 0.9833 ± 0.0078
GAGATTGGGA | 1.04 ± 0.045

Sequence | switch fluorescence ratio
GAGATTTAGG | 0.969 ± 0.034
GAGATTTATT | 0.985 ± 0.057
GAGATTTCAT | 0.982 ± 0.036
GAGATTTGGA | 1.03 ± 0.029
GAGCAAAAAG | 1.05 ± 0.042
GAGCAACCTT | 1.45 ± 0.014
GAGCAGAGGT | 0.984 ± 0.011
GAGCAGGTTT | 1.6 ± 0.92
GAGCCCAGGG | 1.96 ± 0.82
GAGCCGCCAG | 1.03 ± 0.045
GAGCCTCGGA | 1.29 ± 0.44
GAGCGATGGT | 1.12 ± 0.021
GAGCGCGATT | 1.03 ± 0.036
GAGCGGTATC | 0.997 ± 0.043
GAGCGTGTGA | 1.02 ± 0.019
GAGCTAGGAA | 0.981 ± 0.058
GAGCTAGGGA | 1.011 ± 0.0013
GAGCTATGGG | 0.983 ± 0.043
GAGCTATTCG | 1.01 ± 0.047
GAGCTCGTGG | 1.03 ± 0.051
GAGCTGACTT | 1.02 ± 0.016
GAGCTGGGTG | 1.09 ± 0.043
GAGCTGTATG | 1.03 ± 0.014
GAGCTTCTCT | 1.0194 ± 9.9e-05
GAGCTTTTGG | 1.03 ± 0.068

Sequence | switch fluorescence ratio
GAGGAAATGG | 1.024 ± 0.0046
GAGGAAATTG | 0.963 ± 0.054
GAGGAAGTCT | 1.03 ± 0.026
GAGGAATGGC | 0.9828 ± 0.0022
GAGGAGCTTG | 0.94 ± 0.096
GAGGAGGGAG | 0.998 ± 0.014
GAGGAGGTTG | 1.027 ± 0.003
GAGGATGTTA | 1.03 ± 0.036
GAGGCAGAAA | 1.09 ± 0.044
GAGGCAGAAT | 1.03 ± 0.012
GAGGCGTACG | 1.04 ± 0.021
GAGGCGTGTG | 0.985 ± 0.029
GAGGCTTGGG | 0.99 ± 0.011
GAGGGAAACA | 1.01 ± 0.017
GAGGGAAACT | 1.05 ± 0.11
GAGGGAATCG | 0.9635 ± 0.001
GAGGGAGAAA | 1.03 ± 0.038
GAGGGAGATG | 1.03 ± 0.018
GAGGGATATA | 0.996 ± 0.043
GAGGGATGTA | 1.01 ± 0.022
GAGGGATTGG | 1.05 ± 0.12
GAGGGCACGA | 1.09 ± 0.086
GAGGGCAGCA | 1.01 ± 0.048
GAGGGCCTCA | 1 ± 0.033
GAGGGCGGGA | 1.01 ± 0.047

Sequence | switch fluorescence ratio
GAGGGCGTTT | 0.98 ± 0.027
GAGGGCTTTT | 0.98 ± 0.017
GAGGGGAAAA | 0.99 ± 0.04
GAGGGGAGGG | 1.04 ± 0.065
GAGGGGATTT | 1.01 ± 0.013
GAGGGGCCTG | 1.01 ± 0.083
GAGGGGCGCC | 0.987 ± 0.016
GAGGGGCGGT | 1.02 ± 0.026
GAGGGGCGTG | 1 ± 0.022
GAGGGGCTGG | 0.984 ± 0.046
GAGGGGGACT | 1.13 ± 0.19
GAGGGGGAGC | 1.03 ± 0.089
GAGGGGGATG | 0.979 ± 0.026
GAGGGGGGAT | 1.01 ± 0.033
GAGGGGGGGA | 1 ± 0.044
GAGGGGTGTC | 0.978 ± 0.03
GAGGGGTTG | 0.988 ± 0.034
GAGGGTATTA | 1.02 ± 0.019
GAGGGTCGTG | 0.9629 ± 0.0013
GAGGGTCTTT | 0.969 ± 0.025
GAGGGTGCAT | 0.987 ± 0.043
GAGGGTTCCG | 1.01 ± 0.026
GAGGGTTGAA | 0.999 ± 0.033
GAGGTAAGTG | 0.954 ± 0.024
GAGGTACGTA | 1.01 ± 0.027

From the supplement of paper PMC10126150
